Reference: the supplement of paper PMC9170038

System: MS2 coat protein
Experiment: apparent KD of MS2 coat protein; designed switch direction (-1 OFF switch, 1 ON switch): 1; higher = weaker reporter binding
Outline: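 Designed RNA switches sharing common flanks were transcribed on Illumina chips by stalled E. coli RNA polymerase. They were titrated with SNAP-549-labelled MS2 coat protein, from 0.7 or 1.5 nM doubling to 3 µM, in Tris-HCl pH 7.5 buffer with KCl, MgCl2, BSA, DTT, tRNA and Tween-20. Titrations ran without input, with 200 uM small-molecule ligand, or with an oligonucleotide input. The apparent KD of each design is the median over its clusters, after curve-fitting of normalised cluster fluorescence.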

[1] = input ligand: microRNA oligo, concentration not stated
[2] = Eterna round: R95, input ligand: FMN 200 uM
[3] = Eterna round: R95, input ligand: microRNA oligo, concentration not stated
[4] = Eterna round: R95, input ligand: none

Row | Sequence | apparent KD of MS2 coat protein (input ligand: FMN 200 uM) | apparent KD of MS2 coat protein [1] | apparent KD of MS2 coat protein (input ligand: none) | apparent KD of MS2 coat protein [2] | apparent KD of MS2 coat protein [3] | apparent KD of MS2 coat protein [4]
1 | AGAGGAGGCGCAGGAUAUACGACGGAGGACGUGGUAGAAGGGUGCAUGCGAUGACAUGAGGAUCACCCAUGUACCGCGCGACGA [AK SSNG1-V2-16] (Eterna round: R96, puzzle: Same State NG 1) | 0.337 µM | 0.0142 µM | 0.0789 µM | – | – | –
2 | UGGUACAUGGGAGGAUAUCUCGUGGAGACAUGAGGAUCACCCAUGUAGAUGGCCGGUAACCGGUGAGAGAAGGCCCAUGUACCU [JL SSNG1 3.69] (Eterna round: R96, puzzle: Same State NG 2) | 0.0716 µM | 0.0422 µM | 0.141 µM | – | – | –
3 | UGAACCUUCACAGGAUAUCAUGCGAAAAUUGCGUGAGAAGGGUGGAUGUGGUGUUCAAAGAUGCACAUGAGGAUCACCCAUGUA [SameState NG1 #48] (Eterna round: R96, puzzle: Same State NG 1) | 0.106 µM | 0.166 µM | 0.203 µM | – | – | –
4 | AGUCCAGCCUGAGCUGGACAAAAGCAUGUACAUGAGGAUCACCCAUGUCGUGUACAAGCUUUUUGCUCGUCUUAAUA [Zipper 49 - 4] (puzzle: Sensor for hsa-mir-208a) | – | – | – | 0.285 µM | 0.0135 µM | 0.311 µM
5 | AUUAUUUCUGCAGGAUAUGAUUAACAUGAGGAUCACCCAUGUGGUGUUGUGAGUAAGGAGAGUGAUCAGAAGGGCAUUUUUUUU [JMF's solution 62] (Eterna round: R96, puzzle: Same State NG 2) | 0.63 µM | 0.211 µM | 0.313 µM | – | – | –
6 | GGUGGGUUGCUGCCGGCACAUGAGGAUCACCCAUGUUUUGGGAAGGAUAUGGUCCCUCUUUGGUGCCAGAAGGUCCCGUUGGUG [salish99_SSNG3_r04_714] (Eterna round: R96, puzzle: Same State NG 3) | 0.691 µM | 0.402 µM | 0.743 µM | – | – | –
7 | AGUCCAGCCUGAGCUGGACAAAAGCAUGUACAUGAGGAUCACCCAUGUCAUGUACAAGCUUUUUGCUCGUAAUAAUA [Mat - hsa-mir-208a - Mod of JL - D31] (puzzle: Sensor for hsa-mir-208a) | – | – | – | 0.301 µM | 0.0124 µM | 0.477 µM
8 | AGCGAGAUAGGCAAGGAUAUGCUGGGUUUCACAUGAGGAUCACCCAUGUCAUAGGUAAUGUCCGAGCAGAAGGUGCAUUCUCUUU [ak bound state multiloop solution] (puzzle: Same State 2) | – | – | – | – | 0.172 µM | –
9 | GUAGAUAUAGAGGAGGAUAUUCGAUGAGGAACAUGAGGAUCACCCAUGUAAGAGAGAGAUGAUGAGAAGAAGGCUUAGAGGGAUG [Altered State 2-4 - Jieux - Same State 2] (puzzle: Same State 2) | – | – | – | 0.0251 µM | 0.0358 µM | 0.0364 µM
10 | UGGUACAUGGGAGGAUAUCCUAUGGUGACAUGAGGAUCACCCAUGUAAUUGGAGCCGAAAGGCAUGGAGAAGGCCCAUGUACCU [JL SSNG1 3.78] (Eterna round: R96, puzzle: Same State NG 2) | 0.0402 µM | 0.0314 µM | 0.0441 µM | – | – | –
11 | GGUCCAGCCUGAGCUGGACAAAAGCAUGUACAUGAGGAUCACCCAUGUCAUGUACAAGCUUUUUGCUCGUCAUAAUG [Mat - hsa-mir-208a - 99] (puzzle: Sensor for hsa-mir-208a) | – | – | – | 0.713 µM | 0.0186 µM | 0.806 µM
12 | AUUAUACAUGAGGAUCACCCAUGUCAACAAAGUCGAGGAUAUGGGCAAAUAAAAUAAGAACCAGAAGGCGAAUAAU [salish99_ss1_r3_069] (Eterna round: R96, puzzle: Same State 1) | 0.0692 µM | 0.189 µM | 0.293 µM | – | – | –
13 | CGUCCAGCCUGAGCUGGACAAAAGCAUGUACAUGAGGAUCACCCAUGUUCAUGUACAAGCUUUUUGCUCGUCUUAGC [salish99_208a_r3_075] (puzzle: Sensor for hsa-mir-208a) | – | – | – | 0.73 µM | 0.0143 µM | 0.86 µM
14 | GGUCCAGCCUGAGCUGGACAAAAGCAUGUACAUGAGGAUCACCCAUGUCAUGUACAAGCUUUUUGCUCGUCUAAAUU [Mat - hsa-mir-208a - 94] (puzzle: Sensor for hsa-mir-208a) | – | – | – | 0.781 µM | 0.0151 µM | 0.578 µM
15 | UGGUAACAUGAGGAUCACCCAUGUCAAAUGAAUCGAGGAUAUGGGAAGGAAGAAGAGAAACUAGAAGGCGAAGUUG [Altered State 1-5 - Jieux - Same State 1] (puzzle: Same State 1) | – | – | – | 0.089 µM | 0.101 µM | 0.127 µM
16 | CAGUGCUGUCGAGAGGAUAUGCGGUGAUGGACAUGAGGAUCACCCAUGUUAGCGACAGCAUCACGGCAGAAGGCUCUACCCACUG [Soteed Omei mod 45] (puzzle: Same State 2) | – | – | – | – | 0.0167 µM | –
17 | AUUUUUAAUGCAGGAUAUGAUUAACAUGAGGAUCACCCAUGUGGUGUUGUGAGUAAGGAGAGUGAUCAGAAGGGCAUAUUUUUU [JMF's solution 80] (Eterna round: R96, puzzle: Same State NG 2) | 1.17 µM | 0.443 µM | 0.863 µM | – | – | –
18 | CGUCCAGCCUGAGCUGGACAAAAGCAUGUACAUGAGGAUCACCCAUGUUCAUGUACAAGCUUUUUGCUCGUCUUAGG [salish99_208a_r3_074] (puzzle: Sensor for hsa-mir-208a) | – | – | – | 0.593 µM | 0.0201 µM | 0.744 µM
19 | GCUAGAAUUAAAGCCAACAUGAGGAUCACCCAUGUAUGUUGGUAGGAUAUCGUUUGCUUUGCAAACGAGAAGGGCUAAACUAGC [JL SSNG3 1.06] (Eterna round: R96, puzzle: Same State NG 3) | 0.0783 µM | 0.0585 µM | 0.0731 µM | – | – | –
20 | CAGCACUGUCGAGAGGAUAUGCGGUGAUGGACAUGAGGAUCACCCAUGUUAGCGACAGCAUCACGGCAGAAGGCUCUACUGCUGC [Soteed Omei mod 32] (puzzle: Same State 2) | – | – | – | – | 0.0123 µM | –
21 | ACCAAUCCAAUAAAACAAGCGUGCUCGUCACAUGAGGAUCACCCAUGUUCAAGCGCUGUUCCUAAUUCCUCAGCGCC [Ortiat] (puzzle: Sensor for hsa-mir-208a) | – | – | – | 0.0723 µM | 0.0223 µM | 0.0677 µM
22 | AUUAUUAAUGCAGGAUAUGAUUAACAUGAGGAUCACCCAUGUGGUGUUGUGAGUAAGGAGAGUGAUCAGAAGGGCAUUUUUUUC [JMF's solution 20] (Eterna round: R96, puzzle: Same State NG 2) | 0.672 µM | 0.369 µM | 0.399 µM | – | – | –
23 | GGUGCAAUUAACGCCUACAUGAGGAUCACCCAUGUAUGUAGGCAGGAUAUCGUUUGCAAAGCAAACGAGAAGGGCUGUAGUACC [Mat - Same State NG 3 - JL Mod - D40] (Eterna round: R96, puzzle: Same State NG 3) | 0.0511 µM | 0.109 µM | 0.131 µM | – | – | –
